Patent US20170002055A1, “Novel peptides and combination of peptides for use in immunotherapy against ovarian cancer and other cancers” (immatics biotechnologies GmbH, priority 2015, published 2017)

target: HLA-A*02:01 (Homo sapiens, UniProt P04439, D140Y/D185E/D98H/E176V/E277Q/G131W/G231S/I119V/I121R/I166T/I218V/L300P/L318F/N151K/N90K/P208A/P217A/Q86G/Q94H/R138H/R169H/T345S); assay: MHC binding assay (UV-ligand exchange, β2m ELISA, peptide exchange yield); conditions: MHC class I binding score; binding to HLA-A*02:01 ranged by peptide exchange yield (UV-ligand exchange, β2m ELISA)
Source text: Candidate peptides for T cell based therapies according to the present invention were further tested for their MHC binding capacity (affinity). The individual peptide-MHC complexes were produced by UV-ligand exchange, where a UV-sensitive peptide is cleaved upon UV-irradiation, and exchanged with the peptide of interest as analyzed. Only peptide candidates that can effectively bind and stabilize the peptide-receptive MHC molecules prevent dissociation of the MHC complexes. To determine the yield of the exchange reaction, an ELISA was performed based on the detection of the light chain (β2m) of stabilized MHC complexes. The assay was performed as generally described in Rodenko et al. (Rodenko et al., 2006).
96 well MAXISorp plates (NUNC) were coated over night with 2 ug/ml streptavidin in PBS at room temperature, washed 4× and blocked for 1h at 37° C. in 2% BSA containing blocking buffer. […] Peptide-MHC monomers of the UV-exchange reaction were diluted 100 fold in blocking buffer. Samples were incubated for 1h at 37° C., washed four times, incubated with 2 ug/ml HRP conjugated anti-β2m for 1h at 37° C., washed again and detected with TMB solution that is stopped with […]. Absorption was measured at 450 nm. Candidate peptides that show a high exchange yield (preferably higher than 50%, most preferred higher than 75%) are generally preferred for a generation and production of antibodies or fragments thereof, and/or T cell receptors or fragments thereof, as they show sufficient avidity to the MHC molecules and prevent dissociation of the MHC complexes.

Row | Substance | Peptide exchange
1 | 27 (ILADIVISA; listed as Homo sapiens) [compound 27] | “+++” (≧50 = +++)
2 | 185 (FLIDDKGYTL; listed as Homo sapiens) [compound 185] | “++” (≧20% = ++)
3 | 30 (LILDWVPYI; listed as Homo sapiens) [compound 30] | “+++” (≧50 = +++)
4 | 333 (FLPDANSSV; listed as Homo sapiens) [compound 333] | “++” (≧20% = ++)
5 | 111 (YVWGFYPAEV; listed as Homo sapiens) [compound 111] | “+++” (≧50 = +++)
6 | 305 (SIANFSEFYV; listed as Homo sapiens) [compound 305] | “++++” (≧75% = ++++)
7 | 25 (FLPDEPYIKV; listed as Homo sapiens) [compound 25] | “+++” (≧50 = +++)
8 | 153 (FLIANVLYL; listed as Homo sapiens) [compound 153] | “+” (≧10% = +)
9 | 351 (SLIPNLRNV; listed as Homo sapiens) [compound 351] | “+++” (≧50 = +++)
10 | 187 (RQISIRGIVGV; listed as Homo sapiens) [compound 187] | “+++” (≧50 = +++)
11 | 119 (FLYIGDIVSL; listed as Homo sapiens) [compound 119] | “++++” (≧75% = ++++)
12 | 165 (SLLDEIRAV; listed as Homo sapiens) [compound 165] | “+++” (≧50 = +++)
13 | 318 (GLINTGVLSV; listed as Homo sapiens) [compound 318] | “++” (≧20% = ++)
14 | 15 (VLLTFKIFL; listed as Homo sapiens) [compound 15] | “++” (≧20% = ++)
15 | 297 (VLADIELAQA; listed as Homo sapiens) [compound 297] | “+++” (≧50 = +++)
16 | 327 (GLAPFTEGISFV; listed as Homo sapiens) [compound 327] | “+++” (≧50 = +++)
17 | 256 (FLPPEHTIVYI; listed as Homo sapiens) [compound 256] | “+++” (≧50 = +++)

Row | Substance | Peptide exchange
18 | 307 (ALPVSLPQI; listed as Homo sapiens) [compound 307] | “+++” (≧50 = +++)
19 | 184 (YLMDINGKMWL; listed as Homo sapiens) [compound 184] | “+++” (≧50 = +++)
20 | 117 (ILPDGEDFLAV; listed as Homo sapiens) [compound 117] | “+++” (≧50 = +++)
21 | 120 (ALLGIPLTLV; listed as Homo sapiens) [compound 120] | “+++” (≧50 = +++)
22 | 194 (ALPLFVITV; listed as Homo sapiens) [compound 194] | “+++” (≧50 = +++)
23 | 337 (HLLSELEAAPYL; listed as Homo sapiens) [compound 337] | “++++” (≧75% = ++++)
24 | 240 (ILLEQAFYL; listed as Homo sapiens) [compound 240] | “+++” (≧50 = +++)
25 | 264 (SLQEQLHSV; listed as Homo sapiens) [compound 264] | “+++” (≧50 = +++)
26 | 122 (FLLAEDDIYL; listed as Homo sapiens) [compound 122] | “+++” (≧50 = +++)
27 | 53 (KMIETDILQKV; listed as Homo sapiens) [compound 53] | “++++” (≧75% = ++++)
28 | 155 (RVANLHFPSV; listed as Homo sapiens) [compound 155] | “+++” (≧50 = +++)
29 | 50 (SLSELEALM; listed as Homo sapiens) [compound 50] | “+++” (≧50 = +++)
30 | 95 (SVIPQIQKV; listed as Homo sapiens) [compound 95] | “+++” (≧50 = +++)
31 | 342 (HIYDKVMTV; listed as Homo sapiens) [compound 342] | “+++” (≧50 = +++)
32 | 9 (GAAKDLPGV; listed as Homo sapiens) [compound 9] | “++” (≧20% = ++)
33 | 329 (FLVTLNNVEV; listed as Homo sapiens) [compound 329] | “++++” (≧75% = ++++)
34 | 83 (ILAPTVMMI; listed as Homo sapiens) [compound 83] | “+++” (≧50 = +++)

The remaining lines, values ahead:

Row | Peptide exchange | Substance
35 | “++” (≧20% = ++) | 523 (YQIPRTFTL; listed as Homo sapiens) [compound 523]
36 | “++++” (≧75% = ++++) | 621 (VLMDRLPSLL; listed as Homo sapiens) [compound 621]
37 | “++” (≧20% = ++) | 548 (ALWENPESGEL; listed as Homo sapiens) [compound 548]
38 | “++” (≧20% = ++) | 513 (SLWPSPEQL; listed as Homo sapiens) [compound 513]
39 | “++++” (≧75% = ++++) | 568 (TLYDIAHTPGV; listed as Homo sapiens) [compound 568]
40 | “+++” (≧50 = +++) | 555 (YVLEGLKSV; listed as Homo sapiens) [compound 555]
41 | “+++” (≧50 = +++) | 547 (TLDITPHTV; listed as Homo sapiens) [compound 547]
42 | “++” (≧20% = ++) | 377 (FLLDSSASV; listed as Homo sapiens) [compound 377]
43 | “+++” (≧50 = +++) | 593 (GLPRFGIEMV; listed as Homo sapiens) [compound 593]
44 | “+++” (≧50 = +++) | 407 (YLMDLINFL; listed as Homo sapiens) [compound 407]
45 | “+++” (≧50 = +++) | 396 (ALLPDLPAL; listed as Homo sapiens) [compound 396]
46 | “+++” (≧50 = +++) | 521 (MLLTKLPTI; listed as Homo sapiens) [compound 521]
47 | “++” (≧20% = ++) | 354 (LILEGVDTV; listed as Homo sapiens) [compound 354]
48 | “+++” (≧50 = +++) | 378 (ALGYFVPYV; listed as Homo sapiens) [compound 378]
49 | “++++” (≧75% = ++++) | 602 (YLLEQIKLIEV; listed as Homo sapiens) [compound 602]
50 | “+++” (≧50 = +++) | 600 (ALAAPDIVPAL; listed as Homo sapiens) [compound 600]
51 | “+++” (≧50 = +++) | 567 (SLLPLDDIVRV; listed as Homo sapiens) [compound 567]
52 | “+++” (≧50 = +++) | 507 (KLIDDQDISISL; listed as Homo sapiens) [compound 507]
53 | “++” (≧20% = ++) | 565 (ALQETPTSV; listed as Homo sapiens) [compound 565]

Row | Peptide exchange | Substance
54 | “+++” (≧50 = +++) | 592 (RLLSAAENFL; listed as Homo sapiens) [compound 592]
55 | “+++” (≧50 = +++) | 512 (SLSEIVPCL; listed as Homo sapiens) [compound 512]
56 | “+++” (≧50 = +++) | 531 (YTLPIASSIRL; listed as Homo sapiens) [compound 531]
57 | “++” (≧20% = ++) | 428 (KLGHTDILVGV; listed as Homo sapiens) [compound 428]
58 | “++” (≧20% = ++) | 455 (SLLKEPQKVQL; listed as Homo sapiens) [compound 455]
59 | “+++” (≧50 = +++) | 506 (KLLGKVETA; listed as Homo sapiens) [compound 506]
60 | “+++” (≧50 = +++) | 456 (LLIGHLERV; listed as Homo sapiens) [compound 456]
61 | “+++” (≧50 = +++) | 562 (YLEELPEKLKL; listed as Homo sapiens) [compound 562]
62 | “+++” (≧50 = +++) | 545 (LLADLLHNV; listed as Homo sapiens) [compound 545]
63 | “++” (≧20% = ++) | 402 (VLFSGALLGL; listed as Homo sapiens) [compound 402]
64 | “+++” (≧50 = +++) | 617 (ALMYESEKVGV; listed as Homo sapiens) [compound 617]
65 | “++” (≧20% = ++) | 405 (ALYDVFLEV; listed as Homo sapiens) [compound 405]
66 | “++” (≧20% = ++) | 400 (SLLTEQDLWTV; listed as Homo sapiens) [compound 400]
67 | “++++” (≧75% = ++++) | 553 (SLLNQDLHWSL; listed as Homo sapiens) [compound 553]
68 | “+++” (≧50 = +++) | 356 (KLLGKLPEL; listed as Homo sapiens) [compound 356]
69 | “++” (≧20% = ++) | 580 (LLMENAERV; listed as Homo sapiens) [compound 580]
70 | “+++” (≧50 = +++) | 480 (ALLEDSCHYL; listed as Homo sapiens) [compound 480]
71 | “++” (≧20% = ++) | 505 (SLAPGDVVRQV; listed as Homo sapiens) [compound 505]
